Values belong to the molecule of their own block, whether it stands above or below them.
Key:
H441 tumor model = test: H441 xenograft after chemotherapy: tumor response and NRG1 expression in residual tumor cells (qPCR); format: in vivo, human
Procedure: (§1) RNA was isolated using the Qiagen RNeasy Micro Kit, Complementary DNA was prepared from total RNA using ABI high fidelity kit according to manufacturer's instructions. NRG1alpha, NRG1beta, HER3, HER4 expression was determined using ABI gene specific primers/probe by quantitative real time PCR (ABI 7500). Gene expression was normalized using GAPDH or RAB14 house keeping genes.
(§2) Tumor cells (10-20 million) were transplanted into right flank of athymic nude mice. When tumor size reached ˜200 mm^3, the mice were divided into different treatment groups. Mice were then treated with either vehicle or chemotherapy (paclitaxel, i.v.+cisplatin, i.p.) for the initial studies. The chemotherapy dosing regimen was paclitaxel 20 mg/kg i.v. every other day for 5 doses and cisplatin 5 mg/kg i.p. on days 1 and 7 for the Calu3 model and days 1 and 14 for the H441 model. Regressed tumors and time matched vehicle controls were collected at least 1 week after the last dose of chemo. Tumors were dissociated using dispase/collagenase and samples were FACS sorted to collect the GFP positive tumor cells. For the NRG1 knockdown studies, the treatment groups were: sucrose, doxycycline (dox), chemotherapy+sucrose, and chemotherapy+doxycycline. […]
(§3) The expression of NRG1 in TRICs isolated from the Calu3 and H441 xenograft models was analyzed. […]

Calu3 tumor model = test: Calu3 xenograft after chemotherapy: tumor response and NRG1 expression in residual tumor cells (qPCR); format: in vivo, human
Procedure: as §1, §2, §3

[1] = molecular target: T1, Recombinant human NRG1-α EGF domain (R&D Systems, cat#296-HR/CF) (human, UniProt Q02297 177-241); test: SPR (BIAcore T100), IgG captured by anti-human Fc, NRG1α injected; sensorgram shown for 6.25 nM NRG-alpha
T1 construct: also called NRG1-alpha; HRG1α
T1 sequence: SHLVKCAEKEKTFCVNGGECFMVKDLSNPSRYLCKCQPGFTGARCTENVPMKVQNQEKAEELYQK
Procedure: (§4) Binding affinities of anti-NRG1 IgGs were measured by Surface Plasmon Resonance (SRP) using a BIAcore™-T100 instrument. Anti-NRG1 human IgGs were captured by mouse anti-human Fc antibody (GE Healthcare, cat# BR-1008-39) coated on CM5 biosensor chips to achieve approximately 1000 response units (RU). […] Association rates (kₒₙ) and dissociation rates (koff) were calculated using a simple one-to-one Langmuir binding model (BIAcore Evaluation Software version 3.2). The equilibrium dissociation constant (KD) was calculated as the ratio koff/kₒₙ.

[2] = molecular target: T1, Recombinant human NRG1-α EGF domain …; test: cell-based or functional assay
[3] = molecular target: T2, Recombinant human Neuregulin 1-beta (rhNRG1b, Genentech) (human, UniProt Q02297 1-640); test: cell-based or functional assay
T2 sequence: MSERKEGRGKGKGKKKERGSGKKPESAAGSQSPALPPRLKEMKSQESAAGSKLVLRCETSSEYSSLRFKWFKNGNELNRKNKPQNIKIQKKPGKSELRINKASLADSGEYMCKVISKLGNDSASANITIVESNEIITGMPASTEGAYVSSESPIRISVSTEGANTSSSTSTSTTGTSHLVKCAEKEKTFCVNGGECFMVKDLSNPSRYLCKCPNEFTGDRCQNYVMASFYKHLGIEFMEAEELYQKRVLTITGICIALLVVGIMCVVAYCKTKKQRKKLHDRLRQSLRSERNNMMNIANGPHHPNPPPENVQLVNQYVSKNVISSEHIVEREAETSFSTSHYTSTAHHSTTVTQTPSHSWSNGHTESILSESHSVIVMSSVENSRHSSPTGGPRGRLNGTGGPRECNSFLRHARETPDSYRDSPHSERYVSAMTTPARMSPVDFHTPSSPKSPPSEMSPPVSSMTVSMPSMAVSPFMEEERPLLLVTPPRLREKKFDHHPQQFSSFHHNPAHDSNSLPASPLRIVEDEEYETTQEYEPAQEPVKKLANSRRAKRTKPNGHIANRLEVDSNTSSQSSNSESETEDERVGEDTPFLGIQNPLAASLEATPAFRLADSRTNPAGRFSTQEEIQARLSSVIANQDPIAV

HB-EGF = HB-EGF (UniProt Q99075 63-148, limits assumed); test: ELISA
EGF = EGF (UniProt P01133 971-1023); test: ELISA
Betacellulin (BTC) = molecular target: T3, Betacellulin (BTC) (UniProt P35070 32-111); test: ELISA
T3 sequence (looked up): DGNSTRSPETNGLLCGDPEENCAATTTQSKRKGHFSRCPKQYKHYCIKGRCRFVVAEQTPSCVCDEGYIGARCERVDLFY

[4] = molecular target: T4, Recombinant human NRG1-β ECD domain (R&D Systems, cat#377-HB/CF) (human, UniProt Q02297-11 121-191, limits assumed); test: SPR (BIAcore T100), IgG captured by anti-human Fc, NRG1β injected; sensorgram shown for 6.25 nM NRG-beta
T4 construct: also called NRG1-beta; HRG1β
T4 sequence: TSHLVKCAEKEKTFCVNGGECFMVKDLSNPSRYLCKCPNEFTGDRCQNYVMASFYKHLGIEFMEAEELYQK
Procedure: as §4

[5] = molecular target: T1, Recombinant human NRG1-α EGF domain …; test: SPR (BIAcore T100), IgG captured by anti-human Fc, NRG1α injected; table under the head '250 nM NRG1-alpha'
Procedure: as §4

[6] = molecular target: T4, Recombinant human NRG1-β ECD domain …; test: SPR (BIAcore T100), IgG captured by anti-human Fc; table under the head '125nM NRG-beta'; this table is identical to that of FIG. 9 (NRG1-alpha) and does not fit the slow dissociation of the sensorgrams above it
[7] = molecular target: T4, Recombinant human NRG1-β ECD domain …; test: SPR (BIAcore T100), IgG captured by anti-human Fc, NRG1β (HRG-beta) injected; sensorgram shown for 7.8 nM (sheet: '7.8 mnM HRG beta')
Procedure: as §4

[8] = molecular target: T1, Recombinant human NRG1-α EGF domain …; test: SPR (BIAcore T100), IgG captured by anti-human Fc, NRG1α (HRG-alpha) injected; sensorgram shown for 7.8 nM (sheet: '7.8 mnM HRG alpha')
Procedure: as §4

Sequence of EGF (P01133 971-1023 limits assumed): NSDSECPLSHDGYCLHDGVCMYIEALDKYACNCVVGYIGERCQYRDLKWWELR
Sequence of HB-EGF (Q99075 63-148 limits assumed): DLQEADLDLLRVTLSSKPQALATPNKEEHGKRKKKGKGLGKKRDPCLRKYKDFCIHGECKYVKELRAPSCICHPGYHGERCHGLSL

- Kd [5]: 13.2 nM
- koff [5]: 0.0252 s⁻¹
- kon [5]: 1.91e+06 M⁻¹ s⁻¹
- Kd [6]: 13.2 nM
- koff [6]: 0.0252 s⁻¹
- kon [6]: 1.91e+06 M⁻¹ s⁻¹
B3: anti-NRG1 antibody 538.24.36 (antibody, human IgG1, V domains shown)
VH: EVQLVESGGGLVQPGGSLRLSCAASGFTFSGTWIHWVRQAPGKGLEWVAAITPADGSTNYADSVKGRFTISADTSKNTAYLQMNSLRAEDTAVYYCATYMFAMDYWGQGTLVTVSS
VL: DIQMTQSPSSLSASVGDRVTITCRASQNVDRSLAWYQQKPGKAPKLLIYAASSLESGVPSRFSGSGSGTDFTLTISSLQPEDFATYYCQQHYTLPFTFGQGTKVEIKR
notes: also called YW538.24.36

- Kd [7]: 0.109 nM
- koff [7]: 7.34e-05 s⁻¹
- kon [7]: 674000 M⁻¹ s⁻¹
- Kd [8]: 1.74 nM
- koff [8]: 0.00674 s⁻¹
- kon [8]: 3.87e+06 M⁻¹ s⁻¹
- Kd [6]: 1.96 nM
- kon [6]: 480000 M⁻¹ s⁻¹
B4: anti-NRG1 antibody 538.24.94 (antibody, human IgG1, V domains shown)
VH: EVQLVESGGGLVQPGGSLRLSCAASGFTFSGTWIHWVRQAPGKGLEWVAAITPADGSTNYADSVKGRFTISADTSKNTAYLQMNSLRAEDTAVYYCATYMFAMDYWGQGTLVTVSS
VL: DIQMTQSPSSLSASVGDRVTITCRASQDVKKSLAWYQQKPGKAPKLLIYGASNLESGVPSRFSGSGSGTDFTLTISSLQPEDFATYYCQQHYTLPLTFGQGTKVEIKR
notes: also called YW538.24.94

- Kd [5]: 5.18 nM
- koff [5]: 0.0081 s⁻¹
- kon [5]: 1.56e+06 M⁻¹ s⁻¹
- Kd [6]: 5.18 nM
- koff [6]: 0.0081 s⁻¹
- kon [6]: 1.56e+06 M⁻¹ s⁻¹
B5: anti-NRG1 antibody 538.24.17 (antibody, human IgG1, V domains shown)
VH: EVQLVESGGGLVQPGGSLRLSCAASGFTFSGTWIHWVRQAPGKGLEWVAAITPADGSTNYADSVKGRFTISADTSKNTAYLQMNSLRAEDTAVYYCATYMFAMDYWGQGTLVTVSS
VL: DIQMTQSPSSLSASVGDRVTITCRASQDVSTAVAWYQQKPGKAPKLLIYSASFLYSGVPSRFSGSGSGTDFTLTISSLQPEDFATYYCQQSYWMPPTFGQGTKVEIKR
notes: also called YW538.24.17

Second part, the molecule before the results:

Molecule: Nc1ccn([C@@H]2O[C@H](CO)[C@@H](O)C2(F)F)c(=O)n1 [gemcitabine]
- tumor response to treatment (H441 tumor model): tumor regression
- tumor response to treatment (Calu3 tumor model): tumor regression

Molecule: CCC1=C[C@@H]2CN(C1)Cc1c([nH]c3ccccc13)[C@@](C(=O)OC)(c1cc3c(cc1OC)N(C)[C@H]1[C@@](O)(C(=O)OC)[C@H](OC(C)=O)[C@]4(CC)C=CCN5CC[C@]31[C@@H]54)C2 [vinorelbine]
- tumor response to treatment (H441 tumor model): continued to grow
- tumor response to treatment (Calu3 tumor model): continued to grow

B1: anti-NRG1 antibody 526.90.28 (antibody, human IgG1, kappa, V domains shown)
VH: EVQLVESGGGLVQPGGSLRLSCAASGFTFSDIAMSWVRQAPGKGLEWVSWIYPSGGNTYYADSVKGRFTISADTSKNTAYLQMNSLRAEDTAVYYCARSYILSQKSATWAFDYWGQGTLVTVSS
VL: DIQMTQSPSSLSASVGDRVTITCRASQSISSYLAWYQQKPGKAPKLLIYGASSRASGVPSRFSGSGSGTDFTLTISSLQPEDFATYYCQQSYSTPITFGQGTKVEIKR
notes: also called YW526.90.28
- Kd [1]: 0.587 nM
- koff [1]: 0.000595 s⁻¹
- kon [1]: 1.01e+06 M⁻¹ s⁻¹
- IC50 of inhibition of Her3 activation (phosphorylation), KIRA on MCF-7 cells, 0.5 nM rhNRG1a [2]: 13.9 nM
- IC50 of inhibition of Her3 activation (phosphorylation), KIRA on MCF-7 cells, 0.2 nM rhNRG1b [3]: 1.44 nM
- binding result (HB-EGF): no binding
- binding result (EGF): no binding
- binding result (Betacellulin (BTC)): no binding
- Kd [4]: 1.09 nM
- koff [4]: 0.000367 s⁻¹
- kon [4]: 337000 M⁻¹ s⁻¹

B2: anti-NRG1 antibody 538.24 (antibody, human IgG1, V domains shown)
VH: EVQLVESGGGLVQPGGSLRLSCAASGFTFSGTWIHWVRQAPGKGLEWVAAITPADGSTNYADSVKGRFTISADTSKNTAYLQMNSLRAEDTAVYYCATYMFAMDYWGQGTLVTVSS
VL: DIQMTQSPSSLSASVGDRVTITCRASQDVSTAVAWYQQKPGKAPKLLIYSASFLYSGVPSRFSGSGSGTDFTLTISSLQPEDFATYYCQQSYTTPPTFGQGTKVEIKR
notes: also called YW538.24
- Kd [5]: > 400 nM

From US20140363438A1, “NEUREGULIN ANTIBODIES AND USES THEREOF” (Genentech, Inc., priority 2011, published 2014)
